Measurements reported in US20180172709A1.

Molecular target: recombinant Syrian golden hamster proteinase K-sensitive prion protein (residues 23-231) (Syrian golden hamster) (UniProt Q60468)
Assay: cell-based or functional assay

Substance: hamster proteinase K resistant prion protein (263K scrapie strain), purified from hamster brains or (from UniProt P04273 23-231)
- amount of PrP^Sc seed detected, 4-hour QUIC at 65° C.: 100 fg
- amount of PrP^Sc seed detected, 8-hour QUIC at 55° C.: 10 fg
- amount of PrP^Sc seed detected, triplicate 18-hour QUIC at 55° C.: 1 fg
- amount of PrP^Sc seed frequently positive, first 48-hour QUIC round: 25 to 50 ag
- amount of PrP^Sc seed positive in one sample, second serial QUIC round: 10 ag
